Laboratory results taken from US20200325187A1 (Genentech, published 2020).
Read-outs that look alike come from different tables or passages of the source.

Experiments:
hVEGF-A (8-109) [1] = target: T1, hVEGF-A (8-109) (human, UniProt P15692 214-315); experiment: SPR
T1 sequence (looked up): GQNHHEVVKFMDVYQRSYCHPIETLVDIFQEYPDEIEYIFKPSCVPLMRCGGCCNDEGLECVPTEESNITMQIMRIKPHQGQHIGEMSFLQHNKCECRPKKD
Procedure: (§1) Depending on the format of the assay either a streptavidin sensor (SA) or a dextran-coated (CM5) sensor was utilized as described below.
(§2) Reaction was then quenched by addition of 10 molar excess of Glycine pH 8.0 and the sample was buffer exchanged into PBS using an Amicon 0.5 mL 3000 MWCO ultra-centrifugal filters (EMD Millipore). The biotinylation state of the protein was verified by LC-MS analysis. Biotinylated VEGF-A was then captured on the surface until a resonance unit (RU) signal of about ˜400. For immobilization of VEGF-A on CM5 sensor, the surface was first activated with a mixture of N-ethyl-N′-(3-dimethylaminopropyl)carbodiimide hydrochloride and N-hydroxysuccinimide (EDC/NHS) according to the supplier instructions. VEGF-A was then diluted into coupling buffer (0.1 M Acetate Buffer, pH 5.0) and injected until the signal reached about ˜400 RU followed by a wash with 1 M ethanolamine pH 8.0 to quench remaining activated sites.

mouse VEGF-A 164 = target: T2, mouse VEGF-A 164 (mouse, UniProt Q00731-2 27-190); experiment: SPR
T2 construct: also called mouse 164
T2 sequence (looked up): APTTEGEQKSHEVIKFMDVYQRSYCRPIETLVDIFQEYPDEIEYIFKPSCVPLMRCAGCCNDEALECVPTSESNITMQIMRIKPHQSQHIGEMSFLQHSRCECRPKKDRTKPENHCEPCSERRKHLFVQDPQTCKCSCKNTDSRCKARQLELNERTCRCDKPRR
Procedure: as §1, §2

hVEGF-A (8-109) [2] = target: T1, hVEGF-A (8-109); experiment: spot phage ELISA
In short: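 Phage clones from four selection rounds were grown overnight at 37 °C with M13-KO7 helper phage. Bound phage was detected with anti-M13-HRP and TMB, with binding to BSA alone run in parallel as background.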

hVEGF-A [3] = target: T3, hVEGF-A (human, UniProt P15692-4 27-191, limits assumed); experiment: cell-based or functional assay
hVEGF-A [4] = target: T3, hVEGF-A; experiment: cell-based or functional assay; remark: listed apart in the source
hVEGF-A [5] = target: T3, hVEGF-A; experiment: KDR-VEGF competition ELISA
hVEGF-A [6] = target: T3, hVEGF-A; experiment: cell-based or functional assay; remark: listed apart in the source
EGF = EGF (human, UniProt P01133 971-1023); experiment: competition ELISA: EGF coated, constant EGFR receptor, peptide titrated
Sequence of EGF (P01133 971-1023 limits assumed): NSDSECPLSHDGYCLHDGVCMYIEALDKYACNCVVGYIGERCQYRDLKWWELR

IGF-1 = IGF-1 (human, UniProt P05019 49-118); experiment: competition ELISA: IGF coated, constant IGFR receptor, peptide titrated
NGF = NGF (human, UniProt P01138 122-241, limits assumed); experiment: competition ELISA: NGF coated, constant NGFR receptor, peptide titrated
Sequence of NGF (P01138 122-241 limits assumed): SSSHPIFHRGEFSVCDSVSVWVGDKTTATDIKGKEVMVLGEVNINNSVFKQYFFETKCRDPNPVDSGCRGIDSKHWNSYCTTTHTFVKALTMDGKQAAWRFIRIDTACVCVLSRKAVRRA

PDGF-ββ = PDGF-ββ (human, UniProt P01127 82-190); experiment: competition ELISA: PDGF coated, constant PDGFR receptor, peptide titrated
Sequence of PDGF-ββ (P01127 82-190): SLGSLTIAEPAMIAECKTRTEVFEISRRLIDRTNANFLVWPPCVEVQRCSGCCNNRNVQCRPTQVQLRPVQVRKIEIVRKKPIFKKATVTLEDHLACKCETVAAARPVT

VEGF-D = target: T4, VEGF-D (human, UniProt O43915 93-201, limits assumed); experiment: competition ELISA: VEGF-D coated, constant Flt-4 receptor, peptide titrated
T4 sequence (looked up): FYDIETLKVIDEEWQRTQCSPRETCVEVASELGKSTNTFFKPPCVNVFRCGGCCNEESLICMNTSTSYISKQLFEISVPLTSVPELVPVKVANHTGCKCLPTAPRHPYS

human VEGF-A 165 [7] = target: T5, human VEGF-A 165 (human, UniProt P15692-4 27-191); experiment: competition ELISA: VEGF-A 165 coated, constant KDR receptor, peptide titrated; blocked ligand: KDR
Procedure: (§3) Binding specificity of each peptide was established by competition ELISA. […] After blocking with block buffer (PBS with 0.5% BSA and 0.05% TWEEN®20) for 2 hours at room temperature, the receptor-Fc fusions or biotinylated receptors were serially diluted using assay buffer (PBS with 0.5% BSA and 0.05% TWEEN®20) and incubated for 1 hour at room temperature. […] Competition ELISA was conducted in an identical fashion as described above except after blocking, a mixture of serially diluted peptide containing a constant concentration of receptor-Fc fusion or biotinylated receptor (concentration of receptor was set to EC₆₀) was added and incubated for 1 hour. All recombinant human proteins and antibodies were purchased from R &D Systems (Minneapolis, Minn.).
Target sequence in this assay (P15692 other isoform, or with tags, fused parts or gaps limits assumed): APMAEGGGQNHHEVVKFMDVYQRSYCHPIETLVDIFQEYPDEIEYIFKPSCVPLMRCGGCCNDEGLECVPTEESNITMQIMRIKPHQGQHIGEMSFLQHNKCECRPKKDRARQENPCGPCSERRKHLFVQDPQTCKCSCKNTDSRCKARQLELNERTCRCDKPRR

human VEGF-A 165 [8] = target: T5, human VEGF-A 165; experiment: as above; remark: listed apart in the source
Procedure: as §3

hVEGF-A (8-109) [9] = target: T1, hVEGF-A (8-109); experiment: competition ELISA: VEGF-A (8-109) coated, constant Flt-1 receptor, peptide titrated; blocked ligand: Flt-1
Procedure: as §3

Which results are given for GCNIMLPFWGCGRDFECLAGCVCQYYQSCG (designed binder) [VEGF_CKP9.54.90]?
Kd (hVEGF-A (8-109) [1]): 0.87 nM; Kd (mouse VEGF-A 164): 1.31 nM; ELISA (hVEGF-A (8-109) [2]): 2.3; S/N vs BSA (hVEGF-A (8-109) [2]): 29.5; Cellular IC50 (hVEGF-A [3]): 1.35 nM; Cellular IC50 (hVEGF-A [4]): 1.35 nM; FOLD [..] [..] TO VARIANT 9.54.90 (hVEGF-A [4]): 1 fold; IC50 (hVEGF-A [5]): 0.2 nM; IC50 (read off the curve) (hVEGF-A [6]): ~60 nM; binding result (EGF): no binding (tested: 5 µM); binding result (IGF-1): no binding (tested: 5 µM); binding result (NGF): no binding (tested: 5 µM); binding result (PDGF-ββ): no binding (tested: 5 µM); binding result (VEGF-D): no binding (tested: 5 µM); IC50 (read off the curve) (human VEGF-A 165 [7]): ~30 nM; IC50 (read off the curve) (human VEGF-A 165 [8]): ~30 nM; IC50 (read off the curve) (hVEGF-A (8-109) [9]): ~70 nM
